Source: patent publication US20230086069A1 (SYSTIMMUNE, published 2023)
Where a chain is given by its changes, count along the chain named.

T1: rhesus CD19 on cells (CD20+ B cells of rhesus PBMC) (rhesus, UniProt F7F486 20-557)
T1 construct: also called Rhesus CD20+
T1 sequence: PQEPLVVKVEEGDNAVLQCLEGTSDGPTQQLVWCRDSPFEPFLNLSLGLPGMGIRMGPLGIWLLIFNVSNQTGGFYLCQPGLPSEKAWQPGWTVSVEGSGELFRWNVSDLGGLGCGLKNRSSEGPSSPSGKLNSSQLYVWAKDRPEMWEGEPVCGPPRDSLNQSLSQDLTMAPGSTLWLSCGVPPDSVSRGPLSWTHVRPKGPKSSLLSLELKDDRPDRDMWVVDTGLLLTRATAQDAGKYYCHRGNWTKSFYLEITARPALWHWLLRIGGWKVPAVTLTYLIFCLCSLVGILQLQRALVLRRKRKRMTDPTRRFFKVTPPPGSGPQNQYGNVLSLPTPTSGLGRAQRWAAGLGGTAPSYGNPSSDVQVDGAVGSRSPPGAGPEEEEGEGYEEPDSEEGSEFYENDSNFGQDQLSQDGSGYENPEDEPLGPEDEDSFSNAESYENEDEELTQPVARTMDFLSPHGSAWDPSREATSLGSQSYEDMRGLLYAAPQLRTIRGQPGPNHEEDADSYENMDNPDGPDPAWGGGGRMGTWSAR

T2: human CD19 on cells (CD20+ B cells of human PBMC; Raji lymphoma cells) (human, UniProt P15391 20-556)
T2 construct: whole, on cells; also called Human CD20+
T2 sequence (looked up): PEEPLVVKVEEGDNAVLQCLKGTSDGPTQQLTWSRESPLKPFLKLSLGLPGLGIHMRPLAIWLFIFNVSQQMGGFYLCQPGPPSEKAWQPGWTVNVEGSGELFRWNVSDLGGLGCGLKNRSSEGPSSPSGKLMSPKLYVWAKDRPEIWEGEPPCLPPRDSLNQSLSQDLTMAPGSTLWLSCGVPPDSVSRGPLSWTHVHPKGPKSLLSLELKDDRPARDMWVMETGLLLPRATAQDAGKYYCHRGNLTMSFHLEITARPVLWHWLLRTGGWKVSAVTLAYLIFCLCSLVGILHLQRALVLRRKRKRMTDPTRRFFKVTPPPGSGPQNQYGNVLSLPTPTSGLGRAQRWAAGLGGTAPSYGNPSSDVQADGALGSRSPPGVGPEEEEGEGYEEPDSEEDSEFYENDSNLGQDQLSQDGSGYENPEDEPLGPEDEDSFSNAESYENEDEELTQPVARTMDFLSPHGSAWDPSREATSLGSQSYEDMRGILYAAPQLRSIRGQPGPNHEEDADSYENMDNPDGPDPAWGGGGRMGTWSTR

T3: human CD19 protein (R&D Biosystems Cat #9269-CD-050) (human, UniProt P15391 20-291)
T3 sequence (looked up): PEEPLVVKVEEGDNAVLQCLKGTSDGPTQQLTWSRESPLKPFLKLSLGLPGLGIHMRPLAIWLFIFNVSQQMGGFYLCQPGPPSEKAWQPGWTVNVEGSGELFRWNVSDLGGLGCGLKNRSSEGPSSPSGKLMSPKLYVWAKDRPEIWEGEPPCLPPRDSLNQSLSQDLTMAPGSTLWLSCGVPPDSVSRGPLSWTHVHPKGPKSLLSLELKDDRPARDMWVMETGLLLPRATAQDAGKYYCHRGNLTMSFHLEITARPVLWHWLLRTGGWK

T4: His-tagged human CD19 (human, UniProt P15391 20-291, limits assumed)
T4 construct: not shown: His tag
T4 sequence (looked up): T3 sequence (looked up)

B1: SI-63C1 (recombinant chimeric mAb with BU12 mouse parental anti-CD19 variable sequence) (antibody, V domains shown)
VH: QVTLKESGPGILQPSQTLSLTCSFSGFSLSTSGMGVGWIRQPSGKGLEWLAHIWWDDDKRYNPALKSRLTISKDTSSNQVFLKIASVDTADTAAYYCARMELWSYYFDYWGQGTTLTVSS
VL: ENVLTQSPAIMSASPGEKVTMTCSASSSVSYMHWYQQKSSTSPKLWIYDTSKLASGVPGRFSGSGSGNSHFLTISSMEAEDVATYYCFQGSVYPFTFGSGTKLEIKR
notes: Mouse BU12 variable regions on human kappa and human IgG CH1-Fc; also called BU12-chimeric; SI-63C1-AF647
B2: SI-63R1 (humanized anti-CD19 H1 scFv-His-tagged protein) (scFv)
scFv: ENVLTQSPASLSASPGERVTITCSASSSVSYMHWYQQKPGQAPKLWIYDTSKLASGVPSRFSGSGSGNDHTLTISSMEPEDFATYYCFQGSVYPFTFGQGTKLEIKGGGGSGGGGSGGGGSGGGGSQVTLKESGPGLVQPGQTLRLTCAFSGFSLSTSGMGVGWIRQPPGKGLEWLAHIWWDDDKRYNPALKSRLTISKDTSKNQVYLQMNSLDAEDTAVYYCARMELWSYYFDYWGQGTLVTVSSGSHHHHHH
notes: also called SI-63R1(H1)
B3: SI-34C1 (recombinant mAb with 21D4 human anti-CD19 variable sequence) (antibody, human IgG1, kappa, V domains shown)
VH: EVQLVQSGAEVKKPGESLKISCKGSGYSFSSSWIGWVRQAPGKGLEWMGIIYPDDSDTRYSPSFQGQVTISADKSIRTAYLQWSSLKASDTAMYYCARHVTMIWGVIIDFWGQGTLVTVSS
VL: AIQLTQSPSSLSASVGDRVTITCRASQGISSALAWYQQKPGKAPKLLIYDASSLESGVPSRFSGSGSGTDFTLTISSLQPEDFATYYCQQFNSYPFTFGPGTKVDIKR
notes: also called human anti-CD19 antibody (21D4)
B4: SI-63C2 (recombinant mAb with H1 humanized anti-CD19 variable sequence) (antibody, V domains shown)
VH: QVTLKESGPGLVQPGQTLRLTCAFSGFSLSTSGMGVGWIRQPPGKGLEWLAHIWWDDDKRYNPALKSRLTISKDTSKNQVYLQMNSLDAEDTAVYYCARMELWSYYFDYWGQGTLVTVSS
VL: ENVLTQSPASLSASPGERVTITCSASSSVSYMHWYQQKPGQAPKLWIYDTSKLASGVPSRFSGSGSGNDHTLTISSMEPEDFATYYCFQGSVYPFTFGQGTKLEIKR
notes: H1 VH/VL on human kappa and human IgG CH1-Fc; also called SI-huCD19; humanized BU12, H1
B5: SI-63SF4 (H3 scFv-monoFc fusion protein) (Fc fusion)
chain: ENVLTQSPASLSASPGERVTITCSASSSVSYMHWYQQKPGQAPKLWIYDTSKLASGVPSRFSGSGSGNDHTLTISSMEPEDFATYYCFQGSVYPFTFGQGTKLTVLGGGGSGGGGSGGGGSGGGGSQVTLKESGPGLVQPGQTLRLTCAFSGFSLSTSGMGVGWIRQPPGKGLEWLAHIWWDDDKRYNPALKSRLTISKDTSKNQVYLQMNSLDAEDTAVYYCARMELWSYYFDYWGQGTLVTVSSGGSSGSGSGSTGLVPRGSTSSSGTGTSAGTPVAGPSVFLFPPKPKDTLMISRTPEVTCVVVDVSHEDPEVKFNWYVDGVEVHNAKTKPREEQYASTYRVVSVLTVLHQDWLNGKEYKCKVSNKALPAPIEKTISKAKGQPREPQVYTLPPSRDELTKNQVSLRCHVKGFYPSDIAVEWESNGQPENNYKTTKPVLDSDGSFFLYSTLTVDKSRWQQGNVFSCSVLHEALHNHYTQKSLSLSPGKGSGLNDIFEAQKIEWHE
notes: The entry is the whole scFv-monoFc chain; also called Humanized version 3 ScFv monoFc
B6: SI-63SF1 (H1 scFv-monoFc fusion protein) (Fc fusion)
chain: B5 chain with T104E, V105I, L106K
notes: The entry is the whole scFv-monoFc chain; also called Humanized version 1 ScFv monoFc
B7: SI-63SF2 (H2 scFv-monoFc fusion protein) (Fc fusion)
chain: B5 chain with L103I, V105I
notes: The entry is the whole scFv-monoFc chain; also called Humanized version 2 ScFv monoFc
B8: SI-63SF5 (H4 scFv-monoFc fusion protein) (Fc fusion)
chain: B5 chain with L103V
notes: The entry is the whole scFv-monoFc chain; also called Humanized version 4 ScFv monoFc
B9: SI-63SF6 (H5 scFv-monoFc fusion protein) (Fc fusion)
chain: EIVMTQSPSTLSASVGDRVIITCSASSSVSYMHWYQQKPGKAPKLLIYDTSKLASGVPSRFSGSGSGAEFTLTISSLQPDDFATYYCFQGSVYPFTFGQGTKLTVLGGGGSGGGGSGGGGSGGGGSEVQLVESGGGLVQPGGSLRLSCVFSGFSLSTSGMGVGWVRQAPGKGLEWVGHIWWDDDKRYNPALKSRFTISRDTSKNTVYLQMNSLRAEDTAVYYCARMELWSYYFDYWGQGTLVTVSSGSSGSGSGSTGLVPRGSTSSSGTGTSAGTPVAGPSVFLFPPKPKDTLMISRTPEVTCVVVDVSHEDPEVKFNWYVDGVEVHNAKTKPREEQYASTYRVVSVLTVLHQDWLNGKEYKCKVSNKALPAPIEKTISKAKGQPREPQVYTLPPSRDELTKNQVSLRCHVKGFYPSDIAVEWESNGQPENNYKTTKPVLDSDGSFFLYSTLTVDKSRWQQGNVFSCSVLHEALHNHYTQKSLSLSPGKGSGLNDIFEAQKIEWHE
notes: The entry is the whole scFv-monoFc chain; also called Humanized version 5 ScFv monoFc
B10: SI-63SF7 (H6 scFv-monoFc fusion protein) (Fc fusion)
chain: B9 chain with V149S
notes: The entry is the whole scFv-monoFc chain; also called Humanized version 6 ScFv mono Fc

Legend:
[1] = target: T1, rhesus CD19 on cells (CD20+ B cells of …); test: flow cytometry, dose response on rhesus CD20+ lymphocytes
Description: (§1) To determine if the humanization alters the cross reactivity, the flow cytometry was carried out. The SI-63C2 antibody was used to bind the peripheral blood mononuclear cells derived from human, cynomolgus, and rhesus, respectively. Lymphocytes were gated based on forward and side scatter, followed by single cells based on the ratio of forward scatter signal height and area. Viable CD20+ B-cell and CD20− lymphocytes are gated based on the exclusion of membrane permeable amine reactive dye and the binding level of CD20 antibody (clone 2H7, Biolegend). Binding of the labelled antibody was determined as the geometric mean fluorescence intensity (gMFI) of the cell population for the fluorescent conjugate's emission channel. As shown in the histogram analysis in FIG. 4, the SI-63C2 antibody binds to CD20+ B cells from human, cynomolgus, and rhesus (4A) but not to their CD20− lymphocytes (4B).

[2] = target: T2, human CD19 on cells (CD20+ B cells of …); test: flow cytometry, dose response on human CD20+ lymphocytes
Description: as §1

[3] = target: T3, human CD19 protein (R&D Biosystems Cat …); test: BLI (Octet), antibody on anti-human Fc biosensor, human CD19 as analyte
Description: (§2) The purified SI-63C1, SI-63C2, and SI-34C1 antibodies were tested for their binding affinity using biolayer interferometry (ForteBio OctetRED 384). The antibodies were bound to anti-human Fc biosensors, and human CD19 protein (R&D Biosystems Cat #9269-CD-050) was used as the analyte in a 4-point series of 2-fold dilutions with the highest concentration starting at 200 nM.

[4] = target: T5, cynomolgus CD19 on cells (CD20+ B cells of cynomolgus PBMC) (cynomolgus); test: flow cytometry, dose response on cynomolgus CD20+ lymphocytes
T5 construct: whole, on cells; also called Cynomolgus CD20+
Description: as §1

[5] = target: T4, His-tagged human CD19; test: BLI (Octet), scFv-His coupled covalently to AR2G sensor, His-tagged human CD19 as analyte
Description: To assess the binding affinity of SI-63R1, Octet binding assay was used. The SI-63R1 protein was loaded via covalent coupling onto AR2G sensors at 10 ug/ml and bound to a serial dilution of His-tagged human CD19 (1:2.5 dilutions from the highest concentration of 200 nM).

[6] = target: T3, human CD19 protein (R&D Biosystems Cat …); test: BLI (Octet); human CD19
Description: as §2

[7] = target: T2, human CD19 on cells (CD20+ B cells of …); test: flow cytometry, dose response on human CD20+ lymphocytes; human CD20+ lymphocytes
Description: as §1

[8] = target: T3, human CD19 protein (R&D Biosystems Cat …); test: BLI (Octet), antibody on anti-human Fc biosensors, CD19 protein as analyte; human CD19
Description: as §2

[9] = target: T4, His-tagged human CD19; test: BLI (Octet), scFv-monoFc on AHC sensor, His-tagged human CD19 as analyte, global 1:1 fit
Description: To further screen and compare all humanized peptides, the DNA sequences encoding humanized CD19 binding variants (H1, H2, H3, H4, H5 and H6) were configured to a scFv-monoFc format and cloned (Dimitrov et al. 2012.) (SEQ ID NO. 55,57,59,61,63,65). […] They were given names as SI-63SF1(H1), SI-63SF2(H2), SI-63SF4(H3), SI-63SF5(H4), SI-63SF6(H5), and SI-63SF7(H6). Following the expression and purification processes, all six proteins were characterized for their physical characters, including yields (titer), purity (% HMW and aSEC), binding affinity (KD, Kon, and Kdis) to human CD19, and thermal stability. For Octet assay, the scFv-monoFc fusion proteins were loaded via AHC sensors at 10 ug/ml and bound to a serial dilution of His-tagged human CD19 (1:2.5 dilutions starting from the highest concentration of 200 nM), and the resulting global fit to a 1:1 binding model. For the DLS analysis, the temperature was ramped from 25° C. to 75° C. at 0.5° C./min while the radius of the scFv-monoFc fusion proteins (at 1 mg/ml) was monitored by a Wyatt DynaPro Plate Reader III.

Binder | Kd [3] [nM] | koff [3] [s⁻¹] | kon [3] [M⁻¹ s⁻¹] | Kd [9] [nM] | koff [9] [s⁻¹] | other results
B1 | 3.06 | 0.000209 | 68100 | – | – | EC50 [1]: 0.991 µg/mL; EC50 [2]: 0.231 µg/mL; EC50 [4]: 0.909 µg/mL
B2 | – | – | – | – | – | Kd [5]: 1.83 nM; koff [5]: 9.15e-05 s⁻¹
B3 | 1.56 | 0.000101 | 64400 | – | – | Kd [6]: 2.1 nM
B4 | 3.77 | 0.000229 | 60800 | – | – | EC50 [7]: 0.0397 µg/mL; Kd [8]: 3.8 nM; EC50 [1]: 0.666 µg/mL; EC50 [4]: 2.9 µg/mL
B5 | – | – | – | 4.18 | 0.00191 | –
B6 | – | – | – | 6.89 | 0.000184 | –
B7 | – | – | – | 4.22 | 0.00181 | –
B8 | – | – | – | 5.02 | 0.00187 | –
B9 | – | – | – | 5.68 | 0.000339 | kon [9]: 59700 M⁻¹ s⁻¹
B10 | – | – | – | 5.37 | 0.000377 | kon [9]: 70200 M⁻¹ s⁻¹
